Laboratory results from patent US20130288275.

What was measured:
[1] = target: Purified SUMO-1 (Biomol UW9190), not acetylated
[2] = target: Purified SUMO-2 (Biomol UW9200)
[3] = target: Purified SUMO-3 (Biomol UW9210)
Sequence of Purified SUMO-3 (Biomol UW9210) (P55854 whole entry): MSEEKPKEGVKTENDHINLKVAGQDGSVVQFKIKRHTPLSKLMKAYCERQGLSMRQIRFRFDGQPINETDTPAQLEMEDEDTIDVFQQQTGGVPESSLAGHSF

Protein | in vitro acetylation with 14C-acetyl CoA, autoradiography [1] | in vitro acetylation with 14C-acetyl CoA, autoradiography [2] | in vitro acetylation with 14C-acetyl CoA, autoradiography [3]
CBP (CREB binding protein) from Biomol (protein) RKENKFSAKRLQTTRLGNHLEDRVNKFLRRQNHPEAGEVFVRVVASSDKTVEVKPGMKSRFVDSGEMSESFPYRTKALFAFEEIDGVDVCFFGMHVQEYGSDCPPPNTRRVYISYLDSIHFFRPRCLRTAVYHEILIGYLEYVKKLGYVTGHIWACPPSEGDDYIFHCHPPDQKIPKPKRLQEWYKKMLDKAFAERIIHDYKDIFKQATEDRLTSAKELPYFEGDFWPNVLEESIKELEQEEEERKKEESTAASETTEGSQGDSKNAKKKNNKKTNKNKSSISRANKKKPSMPNVSNDLSQKLYATMEKHKEVFFVIHLHAGPVINTLPPIVDPDPLLSCDLMDGRDAFLTLARDKHWEFSSLRRSKWSTLCMLVELHTQGQDRFVYTCNEC | purified SUMO-1 was efficiently acetylated by CBP (lane 3) | SUMO-2 and SUMO-3 were also robustly acetylated by CBP (FIG. 2D, lanes 6-7) | SUMO-2 and SUMO-3 were also robustly acetylated by CBP (FIG. 2D, lanes 6-7)
PCAF (protein) GVIEFHVVGNSLNQKPNKKILMWLVGLQNVFSHQLPRMPKEYITRLVFDPKHKTLALIKDGRVIGGICFRMFPSQGFTEIVFCAVTSNEQVKGYGTHLMNHLKEYHIKHDILNFLTYADEYAIGYFKKQGFSKEIKIPKTKYVGYIKDYEGATLMGCELNPRIPYTE | but not by PCAF (not shown) | – | –
